The values below come from publication PMC7335789, “Bifurcated binding of the OmpF receptor underpins import of the bacteriocin colicin N into Escherichia coli” (The Journal of Biological Chemistry, 2020).

Ends that are not written are not given here.

First the molecules themselves.
T1: OmpF on E. coli cells (E. coli (endogenous in JW2203-1, …, UniProt P02931 23-362))
T1 sequence (looked up): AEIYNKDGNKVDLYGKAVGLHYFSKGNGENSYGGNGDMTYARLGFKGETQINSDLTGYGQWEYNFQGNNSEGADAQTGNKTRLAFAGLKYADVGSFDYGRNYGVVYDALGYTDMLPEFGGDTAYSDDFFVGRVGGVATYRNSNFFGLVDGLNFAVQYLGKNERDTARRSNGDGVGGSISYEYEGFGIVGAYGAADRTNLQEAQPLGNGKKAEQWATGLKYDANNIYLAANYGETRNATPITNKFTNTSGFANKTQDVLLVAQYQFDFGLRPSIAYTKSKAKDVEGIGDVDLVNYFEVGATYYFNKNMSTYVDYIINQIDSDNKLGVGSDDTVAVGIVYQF

B1: ColN^91-185 (ColN central domain) (domain or fragment)
chain: SAKVGEITITPDNSKPGRYISSNPEYSLLAKLIDAESIKGTEVYTFHTRKGQYVKVTVPDSNIDKMRVDYVNWKGPKYNNKLVKRFVSQFLLFRK
notes: also called ColN-R
B2: ColN^2-19 peptide (peptide)
peptide: GSNGADNAHNNAFGGGKN-NH2
notes: also called ColN-OBS; ColN OBS; source: synthetic peptide, bought: Activotec
B3: ColN^1-185 (ColN without the pore forming domain) (domain or fragment)
chain: MGSNGADNAHNNAFGGGKNPGIGNTSGAGSNGSASSNRGNSNGWSWSNKPHKNDGFHSDGSYHITFHGDNNSKPKPGGNSGNRGNNGDGASAKVGEITITPDNSKPGRYISSNPEYSLLAKLIDAESIKGTEVYTFHTRKGQYVKVTVPDSNIDKMRVDYVNWKGPKYNNKLVKRFVSQFLLFRK
B4: ColN^1-185-mCherry (domain or fragment)
chain: B3 chain
notes: also called fluorescently labeled ColN
B5: OmpF (natural protein, E. coli (endogenous in B^E3000), UniProt P02931 23-362, looked up)
chain: T1 sequence (looked up)
notes: also called OmpF trimer; purified OmpF lacking LPS

For series [1], the target named is B5. As to the kind of experiment: ITC; MicroCal ITC200, 25 C, 20 mM potassium phosphate pH 6.5, 1% beta-OG; purified OmpF trimer without LPS in the cell, ColN construct or peptide in the syringe. Particulars: both partners purified. For orientation: In ITC the heat of successive injections is recorded.
Series [2] addresses B5. As to the kind of experiment: ITC. The following applies: one partner purified.
A further series deals with T1, OmpF on E. coli cells. Nature of the series: widefield fluorescence microscopy of labelled cells. Particulars: one partner purified.
Series [3] deals with the molecule itself. Nature of the series: native MS; 10 uM OmpF and 10 uM ColN in 100 mM ammonium acetate pH 6.9, 1% beta-OG, trypsin 37 C 2 h, gel filtration, OmpF fractions analysed in 200 mM ammonium acetate, 1% beta-OG. A general note: Size exclusion chromatography separates by hydrodynamic size, large species first.

As to B1, in the series with OmpF [1], binding was put at a Kd of 14000 nM; the dH was -3.8 kcal/mol; the stoichiometry N (usually the number of molecules, sites or subunits per partner or assembly) is 3.82 ColN^90-185/OmpF.
With B2, in the series with OmpF [1], binding was characterised by a dissociation constant (Kd) of 1400 nM, the dH is -17.9 kcal/mol and the “stoichiometry N” value came out at 3.67 peptide/OmpF.
In the case of B3, in the series with OmpF [1], the Kd (commonly the concentration at which binding is half-saturated) was found to be 214 nM, the dH was -27.7 kcal/mol and the “stoichiometry N” value came out at 2.69 ColN^2-185/OmpF. In addition, in the series with OmpF [2], the affinity, expressed as Kd, was 119 nM and the dH was -38.8 kcal/mol.
B4: the “binding to cells with OmpF and OmpC (BW25113) relative to OmpF-only cells” value with OmpF on E. coli cells was approximately 0.5 fold.
On to B5, for which, in series [3], the “stoichiometry N” value came to 3.
